Laboratory results as given in patent US20230002503A1 (BIOTHEUS, published 2023).
Numbering of substitutions follows the chain as printed. Each block holds one binder with its values, some of them ahead of it.

Experiments:
[1] = target: T1, human CAIX antigen (purchased from AcroBiosystems) (human, UniProt Q16790 38-414); assay: BLI (ForteBio), antibody on AHQ sensor, 100 nM antigen, 1:1 model
[2] = target: T2, human CAIX on CHO cells (CHO-hCAIX) (human, UniProt Q16790 38-459); assay: flow cytometry on CHO-hCAIX cells, anti-human IgG-Fc PE
Description: (§1) CHO cells overexpressing human CAIX (CHO-hCAIX cells) were generated by the pCHO1.0 vector (purchased from Invitrogen) transfected with CAIX cDNA. The cell density of the proliferated CHO-CAIX cells were adjusted to 2×10⁶ cells/ml, added at 100 μL/well to a 96-well flow cytometry plate, and centrifuged for later use. The purified CAIX antibody was diluted with PBS, and 3-fold dilution was started from 400 nM for a total of 12 points, and 100 μL/well of the above diluted sample was added to the above-mentioned 96-well flow cytometry plate with the cells, incubated at 4° C. for 30 min, and washed with PBS for two times. Goat F(ah′)2 Anti-Human IgG-Fc(PE) (purchased from Abeam, ab98596) diluted 100 times with PBS was added at 100 μL/well, incubated at 4° C. for 30 min, and washed twice with PBS. PBS was added at 100 μl/well to resuspend the cells, the cells were detected on a CytoFlex (Bechman) flow cytometer, and the corresponding MFI was calculated.

[3] = target: T1, human CAIX antigen (purchased from …); assay: BLI (ForteBio), method of Example 3
[4] = target: T1, human CAIX antigen (purchased from …); assay: BLI (ForteBio), method of Example 3; second run, alongside the humanized antibodies (Table 4)
[5] = target: T3, monkey CAIX on CHO cells (CHO-cyCAIX) (monkey); assay: flow cytometry on CHO-cyCAIX cells
T3 construct: whole, on cells
Description: as §1
In order to identify the affinity of the antibody to monkey CAIX (cyCAIX) at cell level, the cell strain was constructed according to the method described in Example 4, the affinity of the purified humanized antibody to CHO-cyCAIX was identified at cell level, and the results were shown in FIG. 3 and Table 6.

[6] = target: T4, murine CAIX on CHO cells (CHO-mCAIX) (mouse, UniProt Q8VHB5 32-437); assay: flow cytometry on CHO-mCAIX cells
T4 construct: whole, on cells; also called mouse CAIX
T4 sequence (Q8VHB5 32-437): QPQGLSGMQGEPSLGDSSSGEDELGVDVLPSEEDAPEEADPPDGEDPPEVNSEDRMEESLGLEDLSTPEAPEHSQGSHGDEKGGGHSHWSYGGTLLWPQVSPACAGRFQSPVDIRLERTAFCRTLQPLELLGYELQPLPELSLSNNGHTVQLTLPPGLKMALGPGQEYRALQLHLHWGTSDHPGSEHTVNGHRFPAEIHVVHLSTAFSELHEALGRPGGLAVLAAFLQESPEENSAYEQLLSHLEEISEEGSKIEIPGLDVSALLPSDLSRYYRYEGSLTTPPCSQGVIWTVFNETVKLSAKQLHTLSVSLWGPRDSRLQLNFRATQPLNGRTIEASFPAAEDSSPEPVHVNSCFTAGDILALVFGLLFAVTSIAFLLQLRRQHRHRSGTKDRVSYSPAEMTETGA
Description: as §1
In order to identify the affinity of the antibody to murine CAIX (mCAIX) at cell level, the cell stain was constructed according to the method described in Example 4, the affinity of the purified humanized antibody to CHO-mCAIX at cell level was identified, and the results were shown in FIG. 4 and Table 7.

[7] = target: T2, human CAIX on CHO cells (CHO-hCAIX); assay: flow cytometry on CHO-hCAIX cells
Description: as §1
The purified humanized antibodies were subjected to the detection of binding capacity of the purified humanized nanobody to CHO-hCAIX at cell level according to the method described in Example 4, and the results were shown in FIG. 2 and Table 5.

B1: H-YE-24 (Fc fusion)
chain: QVQLQESGGGLVQPGGSLRLSCAASGNSVNIFRFAAMAWYRQAPGKQRELVAVITSAGGTKYSDSVKGRFTISRDNAKNTVLLQMNSLKPEDTAVYYCNADYLQDYWGQGTQVTVSS
notes: also called CAIX nanobody H-YE-24; not shown: human IgG1 Fc segment
Kd [1]: 1.34 nM
koff [1]: 0.000798 s⁻¹
kon [1]: 594000 M⁻¹ s⁻¹
EC50 [2]: 3.06 nM

B7: H-YE-32 (Fc fusion)
chain: B1 chain with N27G, S28A, V29R, R33S, K61Q, D64S, N79K, L103Y
notes: also called CAIX nanobody H-YE-32; not shown: human IgG1 Fc segment
Kd [3]: 0.369 nM
koff [3]: 0.0001 s⁻¹
kon [3]: 271000 M⁻¹ s⁻¹
Kd [1]: 0.498 nM
koff [1]: 0.000492 s⁻¹
kon [1]: 988000 M⁻¹ s⁻¹
EC50 [5]: 9.42 nM
EC50 [2]: 6.14 nM
EC50 [6]: 34.1 nM
EC50 [7]: 14.6 nM

B8: Hu-H-YE-05-D3 (Fc fusion)
chain: EVQLLESGGGLVQPGGSLRLSCAASGNSVNIFSFAAMSWYRQAPGKGLELVAVITTTGGTKYSDSVKGRFTISRDNSKNTLYLQMNSLRAEDTAVYYCNADYLQDYWGQGTQVTVSS
notes: also called humanized recombinant antibody from H-YE-05; not shown: human IgG1 Fc segment
Kd [3]: 10.3 nM
koff [3]: 0.00185 s⁻¹
kon [3]: 179000 M⁻¹ s⁻¹
EC50 [5]: 14.3 nM
EC50 [6]: 20.8 nM
EC50 [7]: 4.46 nM

B9: Hu-H-YE-23-D2 (Fc fusion)
chain: QVQLVESGGGLVQPGGSLRLSCSASGNSANIFSFASVAWYRQAPGKGLELVSVITSAGGTKYSDSVKGRFTISRDNSKNTLYLQMNSLRAEDTAVYYCNVDYLQDYWGQGTLVTVSS
notes: T0013 prints the label as Hu-H-YB-23-D2; also called Hu-H-YB-23-D2; humanized recombinant antibody from H-YE-23; not shown: human IgG1 Fc segment
Kd [3]: 6.68 nM
koff [3]: 0.00105 s⁻¹
kon [3]: 158000 M⁻¹ s⁻¹
EC50 [5]: 25.1 nM
EC50 [6]: 43.7 nM
EC50 [7]: 8.71 nM

B10: H-YE-33 (Fc fusion)
chain: QVQLQESGGGLVQPGGSLRLSCAASGGDFRFYDMGWYRQAPGKQRELVAGITTRGYTNYADVVKGRFTISRDNAKNTVYLEMNSLKPEDTAVYSCSASHFLGGRIDYWGQGTQVTVSS
notes: also called CAIX nanobody H-YE-33; not shown: human IgG1 Fc segment
Kd [1]: 2.04 nM
koff [1]: 0.00139 s⁻¹
kon [1]: 682000 M⁻¹ s⁻¹
EC50 [2]: 2.78 nM

B15: H-YE-37 (Fc fusion)
chain: QVQLQESGGGLMHDGDSLRLSCAASGRTFSTYAMGWFRQAPGKEREFVAAISWSGGSTYYADSVKGRFTISRDNAKNTVYLQMNSLKPEDTAVYYCAAEGIYNSGSSYHDANGYDYWGQGTQVTVSS
notes: also called CAIX nanobody H-YE-37; not shown: human IgG1 Fc segment
Kd [1]: 2.39 nM
koff [1]: 0.00249 s⁻¹
kon [1]: 1.04e+06 M⁻¹ s⁻¹
EC50 [2]: 6.07 nM

B16: H-YE-03 (Fc fusion)
chain: QVQLQESGGGLVQPGGSLRLSCTASTSSFNFQTMGWYRQAPGKQRELVATITSRAITNYADSVKGRFTISRDNAAKTVSLQMNSLKPEDTAVYYCNAAWIGDYWGQGTQVTVSA
notes: also called CAIX nanobody H-YE-03; not shown: human IgG1 Fc segment
Kd [1]: 1.14 nM
koff [1]: 0.00141 s⁻¹
kon [1]: 1.24e+06 M⁻¹ s⁻¹
EC50 [2]: 7.34 nM

B17: H-YE-04 (Fc fusion)
chain: B16 chain with M34L, K43N, A114S
notes: also called CAIX nanobody H-YE-04; not shown: human IgG1 Fc segment
Kd [1]: 0.282 nM
koff [1]: 0.000259 s⁻¹
kon [1]: 919000 M⁻¹ s⁻¹
EC50 [2]: 7.78 nM

The next lines start with the values.

koff [3]: 0.00159 s⁻¹
kon [3]: 155000 M⁻¹ s⁻¹
Kd [4]: 10.3 nM
Kd [1]: 0.557 nM
koff [1]: 0.000662 s⁻¹
kon [1]: 1.19e+06 M⁻¹ s⁻¹
EC50 [5]: 7.32 nM
EC50 [2]: 8.79 nM
EC50 [6]: 31.7 nM
EC50 [7]: 4.55 nM
B2: H-YE-05 (Fc fusion)
chain: B1 chain with L18R, R33S, M37V, S56T, A57T, N76S
notes: also called CAIX nanobody H-YE-05; not shown: human IgG1 Fc segment

Kd [1]: 1.21 nM
koff [1]: 0.00106 s⁻¹
kon [1]: 875000 M⁻¹ s⁻¹
EC50 [2]: 2.44 nM
B3: H-YE-25 (Fc fusion)
chain: B1 chain with S56T, A57T, N76S
notes: also called CAIX nanobody H-YE-25; not shown: human IgG1 Fc segment

Kd [3]: 7.84 nM
koff [3]: 0.00142 s⁻¹
kon [3]: 181000 M⁻¹ s⁻¹
EC50 [5]: 13.5 nM
EC50 [6]: 58.8 nM
EC50 [7]: 5.07 nM
B4: Hu-H-YE-05-D4 (Fc fusion)
chain: B8 chain with L18R, M37V, S38A, G47Q, L48R, N76S, L81V
notes: as for B8

Kd [1]: 0.109 nM
koff [1]: 0.000109 s⁻¹
kon [1]: 999000 M⁻¹ s⁻¹
EC50 [2]: 4.46 nM
B5: H-YE-26 (Fc fusion)
chain: B1 chain with P14A, A36T, M37V, K46E, Y102F
notes: also called CAIX nanobody H-YE-26; not shown: human IgG1 Fc segment

Kd [3]: 4.08 nM
koff [3]: 0.000556 s⁻¹
kon [3]: 136000 M⁻¹ s⁻¹
Kd [1]: 0.218 nM
koff [1]: 0.0002 s⁻¹
kon [1]: 917000 M⁻¹ s⁻¹
EC50 [5]: 6.55 nM
EC50 [2]: 3.55 nM
EC50 [6]: 38.1 nM
EC50 [7]: 3.11 nM
B6: H-YE-23 (Fc fusion)
chain: B1 chain with V29A, R33S, A36S, M37V, V81I, A100V
notes: also called CAIX nanobody H-YE-23; WYE-23; not shown: human IgG1 Fc segment

Kd [1]: 0.529 nM
koff [1]: 0.000513 s⁻¹
kon [1]: 969000 M⁻¹ s⁻¹
B11: H-YE-38 (Fc fusion)
chain: QVQLQESGGGLMQPGGSLTLSCAVPRFTLDYYAIGWFRQAPGKEREFVAAISWSGGTTQYSDSAKGRFTISRDNSKNTGYLQMNSLKPEDTATYYCAAGRQLEWRTYDYWGQGTQVTVSS
notes: also called CAIX nanobody H-YE-38; not shown: human IgG1 Fc segment

Kd [3]: 0.384 nM
koff [3]: 0.0001 s⁻¹
kon [3]: 260000 M⁻¹ s⁻¹
EC50 [5]: 8.39 nM
EC50 [6]: 59.6 nM
EC50 [7]: 9.61 nM
B12: Hu-H-YE-32-D6 (Fc fusion)
chain: QVQLVESGGGLVQPGGSLRLSCSASGGARNIFSFAAMAWYRQAPGKGLELVAVITSAGGTQYSSSVKGRFTISRDNSKKTLYLQMNSLRAEDTAVYYCNADYYQDYWGQGTQVTVSS
notes: also called humanized antibody from H-YE-32; not shown: human IgG1 Fc segment

Kd [3]: 8.2 nM
koff [3]: 0.00177 s⁻¹
kon [3]: 216000 M⁻¹ s⁻¹
EC50 [5]: 22.7 nM
EC50 [6]: 552 nM
EC50 [7]: 2.33 nM
B13: Hu-H-YE-32-D5 (Fc fusion)
chain: B12 chain with A38H, Q61Y, S63A, S64D
notes: T0013 prints the label as Hu-H-YB-32-D5; also called Hu-H-YB-32-D5; humanized antibody from H-YE-32; not shown: human IgG1 Fc segment

Kd [1]: 2.53 nM
koff [1]: 0.00125 s⁻¹
kon [1]: 495000 M⁻¹ s⁻¹
EC50 [2]: 4.74 nM
B14: H-YE-40 (Fc fusion)
chain: QVQLQESGGGLVQAGGSLRLSCAASGRTFSSYAMGWFRQAPGKEREFVATISWNGGSTYYADSVKGRFTISRDNAKNTVYLQMNSLKPEDTAVYYCAAEHDLGELAGTGYDYWGQGTQVTVSS
notes: also called CAIX nanobody H-YE-40; not shown: human IgG1 Fc segment
